This is an account of results in PMC12328794 (Communications Biology, 2025).

Series [1] concerns the molecule itself. The experiment in a line: AUC; sedimentation velocity, 42,000 rpm, 20 °C, 20 mM Tris-HCl pH 7.5, 150 mM NaCl, 0.5 mM TCEP; c(s) distribution (SEDFIT); oligomeric state of the protein alone.
For series [2], the target named is T1, cytosolic domain of human Fis1 (Fis1_ΔTM, residues 1−123) (human, UniProt Q9Y3D6 1-123).
T1 construct: mitochondrial fission protein 1 (Fis1), human, cytosolic domain with the C-terminal TM region truncated, residues 1-123; pQlinkH vector: N-terminal polyhistidine tag followed by a TEV site; also called Fis1_ΔTM WT; Fis1_WT; source: E. coli Rosetta2(DE3), purified (Ni-NTA, SEC)
The series is described as follows: SPR; Fis1_ΔTM WT or mutants immobilised by amine coupling; Bap31 constructs flowed at 30 μl/min; 25 °C; 20 mM HEPES pH 7.5, 100 mM NaCl, 0.005% Tween 20; BSA reference subtracted; equilibrium analysis. The following applies: both partners purified.

T1 sequence (Q9Y3D6 1-123, stated change not applied): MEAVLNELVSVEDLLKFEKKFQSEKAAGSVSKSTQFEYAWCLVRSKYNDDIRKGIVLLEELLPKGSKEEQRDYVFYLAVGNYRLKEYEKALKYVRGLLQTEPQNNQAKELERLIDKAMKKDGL

B1: Bap31_vDED (residues 168−233 + SAAA) (domain or fragment, human)
chain: LDVGNAEVKLEEENRSLKADLQKLKDELASTKQKLEKAENQVLAMRKQSEGLTKEYDRLLEEHAKLSAAA
notes: B-cell receptor-associated protein 31 (Bap31), human, variant of the death effector domain, residues 168-233; also called Bap31_vDED+SAAA; Bap31_168-233+SAAA; source: E. coli Rosetta2(DE3), purified (Ni-NTA, SEC)
As to B1, the “stoichiometry N” value in series [1] was roughly 2.

B2: Bap31 coiled-coil 2 (Bap31_CC2, residues 168−246) (domain or fragment, human, UniProt P51572 168-246, looked up)
chain: LDVGNAEVKLEEENRSLKADLQKLKDELASTKQKLEKAENQVLAMRKQSEGLTKEYDRLLEEHAKLQAAVDGPMDKKEE
notes: B-cell receptor-associated protein 31 (Bap31), human, coiled-coil 2, residues 168-246; source: E. coli Rosetta2(DE3), purified (Ni-NTA, SEC)
In the case of B2, the “stoichiometry N” value in series [1] is roughly 2.

B3: Bap31 coiled-coil 2 (Bap31_CC2, residues 168−246) WT (domain or fragment, human, UniProt P51572 168-246, looked up)
chain: B2 chain
notes: B-cell receptor-associated protein 31 (Bap31), human, coiled-coil 2, residues 168-246; also called Bap31_CC2 WT; Bap31_WT; source: E. coli Rosetta2(DE3), purified (Ni-NTA, SEC)
In turn, B3 had a Kd in series [2] of 58 µM.
